Experimental findings from patent US20230144192A1 (Sanofi, published 2023) are described below.

In the test the target is FcRn (UniProt P55899 24-297; P61769 21-119, limits assumed). Kind of test: method not described; PBPK model input at pH 6.0, source given as 'Unpublished data'.
FcRn, sequence (P55899 24-297 limits assumed, form in doubt, chain 1 of 2): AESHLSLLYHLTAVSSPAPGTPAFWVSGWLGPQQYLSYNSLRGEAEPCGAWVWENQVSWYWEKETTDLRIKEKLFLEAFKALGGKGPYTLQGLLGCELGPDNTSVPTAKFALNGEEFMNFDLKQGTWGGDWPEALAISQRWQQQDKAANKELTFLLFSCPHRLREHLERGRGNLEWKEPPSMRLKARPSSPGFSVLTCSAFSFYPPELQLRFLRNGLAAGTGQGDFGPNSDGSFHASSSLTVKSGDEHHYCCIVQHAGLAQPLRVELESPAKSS
FcRn, sequence (P61769 21-119 limits assumed, form in doubt, chain 2 of 2): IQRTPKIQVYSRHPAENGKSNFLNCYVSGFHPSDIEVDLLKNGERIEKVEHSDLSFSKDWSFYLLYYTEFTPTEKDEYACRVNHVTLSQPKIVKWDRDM

B1: Ab1 (antibody, human IgG4 S228P, kappa)
heavy: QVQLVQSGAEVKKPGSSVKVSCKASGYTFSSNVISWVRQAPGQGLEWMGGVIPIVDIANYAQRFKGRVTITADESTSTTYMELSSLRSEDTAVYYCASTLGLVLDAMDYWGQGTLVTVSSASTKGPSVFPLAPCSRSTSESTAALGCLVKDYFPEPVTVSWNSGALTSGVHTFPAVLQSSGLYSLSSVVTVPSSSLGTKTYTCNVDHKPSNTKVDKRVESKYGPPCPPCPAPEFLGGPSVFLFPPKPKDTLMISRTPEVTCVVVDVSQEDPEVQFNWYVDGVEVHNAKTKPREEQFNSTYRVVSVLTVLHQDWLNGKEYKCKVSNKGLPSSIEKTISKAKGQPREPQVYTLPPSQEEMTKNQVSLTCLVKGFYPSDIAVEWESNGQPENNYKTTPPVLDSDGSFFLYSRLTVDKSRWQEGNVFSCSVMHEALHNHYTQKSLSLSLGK
light: ETVLTQSPGTLSLSPGERATLSCRASQSLGSSYLAWYQQKPGQAPRLLIYGASSRAPGIPDRFSGSGSGTDFTLTISRLEPEDFAVYYCQQYADSPITFGQGTRLEIKRTVAAPSVFIFPPSDEQLKSGTASVVCLLNNFYPREAKVQWKVDNALQSGNSQESVTEQDSKDSTYSLSSTLTLSKADYEKHKVYACEVTHQGLSSPVTKSFNRGEC
notes: Human IgG4 (S228P, Eu numbering) / kappa anti-TGF-beta antibody; also called GC2008; copies: 2 + 2
As to B1, binding was characterised by a dissociation constant (Kd) of 1400 nM. In other words, the single-digit micromolar range.
